# Laboratory results as given in US9662404B2, “Compositions and methods for the delivery of molecules into live cells” (The Texas A&M University System, priority 2013, dated 2017).
# Ends that are not written are not given here.
# Assays:
# [1] = tested on: HeLa, NIH 3T3, COLO 316 and HaCaT; conditions: 5 μM
# Protocol: The TAT, dTAT and acTAT peptides were incubated for 1 h with several cell lines and internalization was assessed by fluorescence microscopy. […] See also FIG. 5. […] The cell lines HeLa, NIH 3T3, COLO 316 and HaCaT were incubated with 5 μM dTAT for 1 h, washed and imaged. […] After imaging, cells were incubated at 37° C. in a humidified atmosphere containing 5% CO2 for 24 h, washed and imaged again. […] Cell viability was assessed by exclusion of the cell-impermeable nuclear stain SYTOX® Blue at both 1 h and 24 h time point. […] Inverted monochrome (black=fluorescence signal, white-no signal) fluorescence images were made of HeLa cells incubated with 10 or 20 μM of TAT for 1 h.
# Live cells from different lines (HeLa, HaCat, NIH 3T3) were grown in Dulbecco's […] (DMEM) (Fisher) supplemented with 10% fetal bovine serum (FBS) (Fisher) and kept at 37° C. in a humidified atmosphere containing 5% CO2. […] Images were acquired using bright field imaging and three standard fluorescence filter sets: CFP (Ex=436±10 nm/Em=480±20 nm), RFP (Ex=560±20 nm/Em=630±35 nm), and FITC (Ex=488±10 nm/Em=520±20 nm). The fluorescence intensities of different cells were measured with the SlideBook 4.2 software (Olympus, Center Valley, Pa.) and the average fluorescence intensity was determined for each condition. […]
# [2] = tested on: HeLa, Neuro-2a and HDF cells; assay: Cell proliferation, MTT assay in several cell types; type: cell-based; conditions: 5 μM, 1 h; up to 36 h after incubation
# Protocol: FIG. 12 illustrates that cells treated with dTAT proliferate at a rate identical to untreated cells. HeLa, Neuro-2a and HDF cells were incubated with 5 μM dTAT for 1 h or left untreated. Proliferation was assessed using a MTT assay for up to 36 h after incubation (150,000 cells/experiment, experiments in triplicates, average and standard deviations represented).
# In order to determine cells that had compromised plasma membranes, cells were treated with SYTOX® Green (SYTOX® Blue in some cases) and Hoechst (Invitrogen, Carlsbad, Calif.). SYTOX® dyes are cell-impermeable and stain the DNA of cells with compromised plasma membranes. The Hoechst dye is cell permeable and stains the DNA of all cells. Images were acquired using the green and blue filter. The green and blue images were used to count cells with a blue or green stained nucleus. Image J was used to count the dead (green) and total cells (blue). Cytotoxicity was determined from the ratio of SYTOX® Green positive cells/total number of cells. […] After the incubation each sample was mixed and the absorbance at 600 nm was measured. […] A second control consisted of cells treated with the delivery peptide but to which no MTT was added to subtract the contribution of TMR from the measured absorbance. The absorbance of the negative control was subtracted from all samples.
substance,measurement,setting,value
"(CK(TMR)TAT)2 (CK(TMR)RKKRRQRRRG; also: dimer) [dTAT, dimer of two CK(TMR)-TAT monomers linked via a disulfide bond between the N-terminal cysteine residues]",cellular localization of fluorescence signal,[1]; 1 h,in the cytosol and nucleus of cells
same,"plasma membrane integrity, SYTOX Blue staining","[1]; 1 h incubation, 1 h and 24 h time points",not stained with SYTOX® Blue
same,proliferation of treated versus untreated cells,[2],nearly identical proliferation patterns
